# Data reported in patent US20040006777.
# Molecular target: Raytide (synthetic peptide substrate)
protein,measurement,value
T7 tagged Lyp1 (protein) MDQREILQKFLDEAQSKKITKEEFANEFLKLKRQSTKYKADKTYPTTVAENAKNIKKNRYKDILPYDYSRVELSLITSDEDSSYINANFIKGVYGPKAYIATQGPLSTTLLDFWRMIWEYSVLIIVMACMEYEMGKKKCERYWAEPGEMQLEFGPFSVSCEAEKRKSDYIIRTLKVKFNSETRTIYQFHYKNWPDHDVPSSIDPILELIWDVRCYQEDDSVPICIHCSAGCGRTGVICAIVDYTWMLLKDGIIPENFSVFSLIREMRTQRPSLVQTQEQYELVYNAVLELFKRQMDVIRDKHSGTESQAKHCIPEKNHTLQADSYSPNLPKSTTKAAKMMNQQRTKMEIKESSSFDFRTSEISAKEELVLHPAKSSTSFDFLELNYSFDKNADTTMKWQTKAFPIVGEPLQKHQSLDLGSLLFEGCSNSKPVNAAGRYFNSKVPITRTKSTPFELIQQRETKEVDSKENFSYLESQPHDSCFVEMQAQKVMHVSSAELNYSLPYDSKHQIRNASNVKHHDSSALGVYSYIPLVENPYFSSWPPSGTSSKMSLDLPEKQDGTVFPSSLLPTSSTSLFSYYNSHSSLSLNSPTNISSLLNQESAVLATAPRIDDEIPPPLPVRTPESFIVVEEAGEFSPNVPKSLSSAVKVKIGTSLEWGGTSEPKKFDDSVILRPSKSVKLRSPKSELHQDRSSPPPPLPERTLESFFLADEDCMQAQSIETYSTSYPDTMENSTSSKQTLKTPGKSFTRSKSLKILRNMKKSICNSCPPNKPAESVQSNNSSSFLNFGFANRFSKPKGPRNPPPTWNI,"33P release from labelled Raytide, in vitro phosphatase assay with immunoprecipitates",a seven fold increase in ^33P release from the substrate incubated with Lyp immunoprecipitates compared to control immunoprecipitates
